# Data: patent US20090118184A1 (UNIVERSITY OF ROCHESTER, published 2009)
# T1: factor VIIIa A1/A3C1C2 dimer, wild type (human, UniProt P00451 20-391; P00451 1709-2351)
# T1 sequence 1: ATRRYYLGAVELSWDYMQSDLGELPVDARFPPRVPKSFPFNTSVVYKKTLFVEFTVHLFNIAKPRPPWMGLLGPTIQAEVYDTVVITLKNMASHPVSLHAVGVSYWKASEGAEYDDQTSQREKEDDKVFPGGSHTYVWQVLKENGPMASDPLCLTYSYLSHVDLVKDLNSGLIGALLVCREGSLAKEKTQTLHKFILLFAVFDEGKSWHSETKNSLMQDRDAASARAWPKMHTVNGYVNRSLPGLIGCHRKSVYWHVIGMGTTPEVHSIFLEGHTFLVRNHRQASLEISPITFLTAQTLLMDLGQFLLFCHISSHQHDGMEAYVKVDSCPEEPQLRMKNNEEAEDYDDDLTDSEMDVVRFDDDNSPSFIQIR
# T1 sequence 2: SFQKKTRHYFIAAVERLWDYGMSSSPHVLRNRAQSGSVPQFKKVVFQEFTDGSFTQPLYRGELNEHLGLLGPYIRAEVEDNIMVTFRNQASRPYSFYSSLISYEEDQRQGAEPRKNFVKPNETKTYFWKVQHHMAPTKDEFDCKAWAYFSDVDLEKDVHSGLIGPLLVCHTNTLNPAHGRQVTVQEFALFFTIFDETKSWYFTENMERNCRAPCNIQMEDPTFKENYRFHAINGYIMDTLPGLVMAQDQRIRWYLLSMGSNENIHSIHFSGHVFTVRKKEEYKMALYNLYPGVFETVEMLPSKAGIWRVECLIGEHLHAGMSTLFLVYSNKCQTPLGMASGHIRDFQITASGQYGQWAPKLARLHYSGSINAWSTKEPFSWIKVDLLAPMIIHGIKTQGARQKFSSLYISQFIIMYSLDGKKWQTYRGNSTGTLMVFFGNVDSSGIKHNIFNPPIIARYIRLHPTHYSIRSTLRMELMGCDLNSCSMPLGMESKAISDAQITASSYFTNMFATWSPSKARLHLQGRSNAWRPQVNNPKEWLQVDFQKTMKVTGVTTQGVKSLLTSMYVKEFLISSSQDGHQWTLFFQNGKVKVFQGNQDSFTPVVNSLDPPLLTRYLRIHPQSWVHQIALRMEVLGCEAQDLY
# T2: factor VIIIa A1/A3C1C2 dimer, Glu1984Ala (human, UniProt P00451 20-391; P00451 1709-2351)
# T2 sequence 1: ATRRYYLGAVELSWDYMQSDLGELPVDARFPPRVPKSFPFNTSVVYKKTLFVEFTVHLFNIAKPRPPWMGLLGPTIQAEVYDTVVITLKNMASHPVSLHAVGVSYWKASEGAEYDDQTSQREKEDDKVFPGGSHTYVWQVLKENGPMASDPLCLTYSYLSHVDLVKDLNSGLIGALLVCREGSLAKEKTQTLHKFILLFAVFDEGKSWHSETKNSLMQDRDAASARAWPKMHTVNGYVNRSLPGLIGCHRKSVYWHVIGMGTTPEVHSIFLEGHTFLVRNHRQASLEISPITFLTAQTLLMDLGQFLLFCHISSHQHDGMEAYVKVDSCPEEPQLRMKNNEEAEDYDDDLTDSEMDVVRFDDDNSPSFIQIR
# T2 sequence 2: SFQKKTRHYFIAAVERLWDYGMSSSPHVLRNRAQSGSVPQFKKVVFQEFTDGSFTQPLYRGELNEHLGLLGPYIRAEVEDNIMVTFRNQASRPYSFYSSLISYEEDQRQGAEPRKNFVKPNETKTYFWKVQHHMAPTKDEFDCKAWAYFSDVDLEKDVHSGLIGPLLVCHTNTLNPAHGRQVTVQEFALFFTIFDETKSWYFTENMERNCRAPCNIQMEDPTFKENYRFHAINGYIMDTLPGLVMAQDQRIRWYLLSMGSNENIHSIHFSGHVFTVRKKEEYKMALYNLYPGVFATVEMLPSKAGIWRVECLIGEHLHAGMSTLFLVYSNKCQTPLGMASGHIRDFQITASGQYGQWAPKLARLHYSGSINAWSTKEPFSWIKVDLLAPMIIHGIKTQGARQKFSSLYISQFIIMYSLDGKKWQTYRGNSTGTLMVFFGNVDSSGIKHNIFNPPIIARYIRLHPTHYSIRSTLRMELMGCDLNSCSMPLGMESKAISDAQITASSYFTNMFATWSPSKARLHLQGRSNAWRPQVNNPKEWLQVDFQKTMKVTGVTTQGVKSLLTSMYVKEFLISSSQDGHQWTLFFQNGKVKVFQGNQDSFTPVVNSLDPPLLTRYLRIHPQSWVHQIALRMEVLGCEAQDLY
# T3: factor VIIIa A1/A3C1C2 dimer, Glu1984Val (human, UniProt P00451 20-391; P00451 1709-2351)
# T3 sequence 1: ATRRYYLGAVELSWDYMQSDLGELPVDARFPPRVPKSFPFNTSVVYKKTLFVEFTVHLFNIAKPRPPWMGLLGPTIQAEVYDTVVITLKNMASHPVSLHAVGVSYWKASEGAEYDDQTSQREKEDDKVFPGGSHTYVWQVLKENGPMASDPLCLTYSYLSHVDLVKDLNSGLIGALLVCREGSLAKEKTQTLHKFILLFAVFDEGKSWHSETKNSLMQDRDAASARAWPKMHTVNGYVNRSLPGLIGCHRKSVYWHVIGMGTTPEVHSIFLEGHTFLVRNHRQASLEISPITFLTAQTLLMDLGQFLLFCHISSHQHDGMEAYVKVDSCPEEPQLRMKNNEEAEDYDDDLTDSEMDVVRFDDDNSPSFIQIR
# T3 sequence 2: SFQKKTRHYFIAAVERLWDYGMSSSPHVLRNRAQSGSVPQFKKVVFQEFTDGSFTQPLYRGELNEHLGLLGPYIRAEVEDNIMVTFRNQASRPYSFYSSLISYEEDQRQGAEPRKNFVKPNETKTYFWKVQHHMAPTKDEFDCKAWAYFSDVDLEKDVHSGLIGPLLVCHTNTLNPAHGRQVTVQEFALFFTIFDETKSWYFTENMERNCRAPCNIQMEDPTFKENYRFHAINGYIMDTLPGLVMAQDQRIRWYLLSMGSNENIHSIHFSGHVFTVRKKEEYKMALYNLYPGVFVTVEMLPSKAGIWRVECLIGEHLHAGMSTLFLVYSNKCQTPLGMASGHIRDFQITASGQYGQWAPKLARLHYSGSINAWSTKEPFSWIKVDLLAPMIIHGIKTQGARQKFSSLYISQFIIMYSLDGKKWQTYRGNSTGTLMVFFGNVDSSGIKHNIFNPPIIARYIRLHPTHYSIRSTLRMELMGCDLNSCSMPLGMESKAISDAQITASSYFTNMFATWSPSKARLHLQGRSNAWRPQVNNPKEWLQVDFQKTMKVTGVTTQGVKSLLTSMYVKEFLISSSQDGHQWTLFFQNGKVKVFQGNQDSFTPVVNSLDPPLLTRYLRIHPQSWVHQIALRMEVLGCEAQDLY
# T4: factor VIIIa A1/A3C1C2 dimer, Glu113Ala (human, UniProt P00451 20-391; P00451 1709-2351)
# T4 chain 1: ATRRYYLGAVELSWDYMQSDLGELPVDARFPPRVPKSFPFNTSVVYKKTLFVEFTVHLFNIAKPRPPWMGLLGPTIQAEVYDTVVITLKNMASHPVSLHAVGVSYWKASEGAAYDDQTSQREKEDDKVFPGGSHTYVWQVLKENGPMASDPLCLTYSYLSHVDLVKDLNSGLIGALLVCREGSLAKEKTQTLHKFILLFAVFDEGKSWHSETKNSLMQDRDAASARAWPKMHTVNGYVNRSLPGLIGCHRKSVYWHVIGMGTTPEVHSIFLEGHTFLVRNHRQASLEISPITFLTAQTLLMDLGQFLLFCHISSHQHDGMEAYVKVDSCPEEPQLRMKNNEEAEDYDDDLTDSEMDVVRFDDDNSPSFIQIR
# T4 chain 2: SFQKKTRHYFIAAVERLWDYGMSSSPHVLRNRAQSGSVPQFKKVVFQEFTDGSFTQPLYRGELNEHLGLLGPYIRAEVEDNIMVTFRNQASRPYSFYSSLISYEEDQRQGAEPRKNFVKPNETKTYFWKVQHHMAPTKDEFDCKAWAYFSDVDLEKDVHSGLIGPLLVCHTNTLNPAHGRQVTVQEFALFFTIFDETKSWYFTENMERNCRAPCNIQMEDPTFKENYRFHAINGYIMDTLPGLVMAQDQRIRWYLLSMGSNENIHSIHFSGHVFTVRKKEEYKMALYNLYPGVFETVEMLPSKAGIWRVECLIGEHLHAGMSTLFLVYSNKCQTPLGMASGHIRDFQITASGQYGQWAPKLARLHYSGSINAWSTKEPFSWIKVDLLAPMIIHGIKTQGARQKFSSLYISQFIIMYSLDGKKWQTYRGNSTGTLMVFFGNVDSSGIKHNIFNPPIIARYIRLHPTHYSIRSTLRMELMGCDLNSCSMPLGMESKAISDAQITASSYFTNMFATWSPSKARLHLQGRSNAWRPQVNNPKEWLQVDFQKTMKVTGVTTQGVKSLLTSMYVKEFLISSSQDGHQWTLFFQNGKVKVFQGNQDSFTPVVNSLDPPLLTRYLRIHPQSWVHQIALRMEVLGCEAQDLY
# Experiments:
# Experiment in all cases: cell-based or functional assay
# [1] = molecular target: T1, factor VIIIa A1/A3C1C2 dimer, wild type
# [2] = molecular target: T2, factor VIIIa A1/A3C1C2 dimer, Glu1984Ala
# [3] = molecular target: T3, factor VIIIa A1/A3C1C2 dimer, Glu1984Val
# [4] = molecular target: T1, factor VIIIa A1/A3C1C2 dimer, wild type; remark: listed apart in the source
# [5] = molecular target: T4, factor VIIIa A1/A3C1C2 dimer, Glu113Ala
"Decay rate relative to wild type, Factor VIIIa (1.5 nM, factor IXa absent) [1]","Decay rate, Factor VIIIa (1.5 nM factor VIIIa, factor IXa absent) [1]","Decay rate relative to wild type, Factor VIIIa (1.5 nM, factor IXa absent) [2]","Decay rate, Factor VIIIa (1.5 nM factor VIIIa, factor IXa absent) [2]","Decay rate relative to wild type, Factor VIIIa (1.5 nM, factor IXa absent) [3]","Decay rate, Factor VIIIa (1.5 nM factor VIIIa, factor IXa absent) [3]","Factor VIIIa Decay relative to the WT value, Factor IXa absent [4]","Factor VIIIa Decay relative to the WT value, Factor IXa present [4]","Factor VIIIa Decay, Factor IXa absent [4]","Factor VIIIa Decay, Factor IXa present [4]","Decay rate relative to wild type, Factor VIIIa (1.5 nM, factor IXa absent) [5]","Decay rate, Factor VIIIa (1.5 nM factor VIIIa, factor IXa absent) [5]",Binder
0.16 relative to wild type,0.0222 min⁻¹,0.17 relative to wild type,0.0235 min⁻¹,,,,,,,,,"factor VIIIa A2 subunit, D519A and E665V (other) SVAKKHPKTWVHYIAAEEEDWDYAPLVLAPDDRSYKSQYLNNGPQRIGRKYKKVRFMAYTDETFKTREAIQHESGILGPLLYGEVGDTLLIIFKNQASRPYNIYPHGITDVRPLYSRRLPKGVKHLKDFPILPGEIFKYKWTVTVEAGPTKSDPRCLTRYYSSFVNMERDLASGLIGPLLICYKESVDQRGNQIMSDKRNVILFSVFDENRSWYLTENIQRFLPNPAGVQLEDPEFQASNIMHSINGYVFDSLQLSVCLHEVAYWYILSIGAQTDFLSVFFSGYTFKHKMVYVDTLTLFPFSGETVFMSMENPGLWILGCHNSDFRNRGMTALLKVSSCDKNTGDYYEDSYEDISAYLLSKNNAIEPR"
0.14 relative to wild type,0.0198 min⁻¹,0.1 relative to wild type,0.0142 min⁻¹,0.16 relative to wild type,0.0227 min⁻¹,,,,,,,"factor VIIIa A2 subunit, D519V and E665V (other) SVAKKHPKTWVHYIAAEEEDWDYAPLVLAPDDRSYKSQYLNNGPQRIGRKYKKVRFMAYTDETFKTREAIQHESGILGPLLYGEVGDTLLIIFKNQASRPYNIYPHGITDVRPLYSRRLPKGVKHLKDFPILPGEIFKYKWTVTVEVGPTKSDPRCLTRYYSSFVNMERDLASGLIGPLLICYKESVDQRGNQIMSDKRNVILFSVFDENRSWYLTENIQRFLPNPAGVQLEDPEFQASNIMHSINGYVFDSLQLSVCLHEVAYWYILSIGAQTDFLSVFFSGYTFKHKMVYVDTLTLFPFSGETVFMSMENPGLWILGCHNSDFRNRGMTALLKVSSCDKNTGDYYEDSYEDISAYLLSKNNAIEPR"
0.64 relative to wild type,0.0898 min⁻¹,0.19 relative to wild type,0.0266 min⁻¹,0.23 relative to wild type,0.0319 min⁻¹,0.66 relative to WT,0.41 relative to WT,0.0556 min⁻¹,0.0063 min⁻¹,0.53 relative to wild type,0.0748 min⁻¹,"factor VIIIa A2 subunit, Asp519Ala (other) SVAKKHPKTWVHYIAAEEEDWDYAPLVLAPDDRSYKSQYLNNGPQRIGRKYKKVRFMAYTDETFKTREAIQHESGILGPLLYGEVGDTLLIIFKNQASRPYNIYPHGITDVRPLYSRRLPKGVKHLKDFPILPGEIFKYKWTVTVEAGPTKSDPRCLTRYYSSFVNMERDLASGLIGPLLICYKESVDQRGNQIMSDKRNVILFSVFDENRSWYLTENIQRFLPNPAGVQLEDPEFQASNIMHSINGYVFDSLQLSVCLHEVAYWYILSIGAQTDFLSVFFSGYTFKHKMVYEDTLTLFPFSGETVFMSMENPGLWILGCHNSDFRNRGMTALLKVSSCDKNTGDYYEDSYEDISAYLLSKNNAIEPR"
